Test results as given in US5969210, “Methods for the characterization of compounds which stimulate STF-1 expression in pancreatic islet cells” (Research Development Foundation).

Biological target: BETA-2/E47 heterodimer (reticulocyte lysate) (UniProt Q60430;P15923-2 Q60430:1-355,P15923-2:1-651)
Experiment: EMSA; BETA-2 and E-47 cDNAs
Conditions: label: 32P

Chain of BETA-2/E47 heterodimer (reticulocyte lysate) (Q60430 whole entry, chain 1 of 2): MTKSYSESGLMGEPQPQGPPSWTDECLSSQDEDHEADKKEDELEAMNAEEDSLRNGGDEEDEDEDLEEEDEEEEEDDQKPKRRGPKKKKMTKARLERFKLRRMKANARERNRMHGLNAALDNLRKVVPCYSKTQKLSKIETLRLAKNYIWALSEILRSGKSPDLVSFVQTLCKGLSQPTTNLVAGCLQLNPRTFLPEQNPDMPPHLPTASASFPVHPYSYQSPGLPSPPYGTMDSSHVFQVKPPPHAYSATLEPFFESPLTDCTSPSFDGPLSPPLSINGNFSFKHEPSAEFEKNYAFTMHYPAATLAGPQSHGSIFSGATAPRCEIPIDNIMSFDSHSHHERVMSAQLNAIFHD
Chain of BETA-2/E47 heterodimer (reticulocyte lysate) (P15923 other isoform, or with tags, fused parts or gaps, chain 2 of 2): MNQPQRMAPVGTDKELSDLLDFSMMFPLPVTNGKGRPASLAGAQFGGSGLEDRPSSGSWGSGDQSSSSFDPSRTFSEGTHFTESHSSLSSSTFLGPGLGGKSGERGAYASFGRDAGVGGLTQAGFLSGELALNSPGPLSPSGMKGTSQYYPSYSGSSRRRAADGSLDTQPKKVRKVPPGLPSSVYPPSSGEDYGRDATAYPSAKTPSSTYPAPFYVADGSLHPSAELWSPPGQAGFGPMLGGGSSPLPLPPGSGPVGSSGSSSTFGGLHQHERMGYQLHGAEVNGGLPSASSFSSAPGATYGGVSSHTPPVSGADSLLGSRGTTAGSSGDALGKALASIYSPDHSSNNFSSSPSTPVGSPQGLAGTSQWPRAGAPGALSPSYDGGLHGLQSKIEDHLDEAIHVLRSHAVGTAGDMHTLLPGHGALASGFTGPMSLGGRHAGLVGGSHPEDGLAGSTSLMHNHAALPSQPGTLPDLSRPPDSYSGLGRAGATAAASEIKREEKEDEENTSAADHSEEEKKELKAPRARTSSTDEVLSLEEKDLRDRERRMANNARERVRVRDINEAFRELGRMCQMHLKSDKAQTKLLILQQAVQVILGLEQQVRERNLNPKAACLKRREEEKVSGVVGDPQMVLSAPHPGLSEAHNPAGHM

B1: B element WT (dsDNA)
DNA 1: TCAGTGACAGATGGAGTCCT
DNA 2: AGGACTCCATCTGTCACTGA
binding result: binds
